Experimental data as given in paper PMC2636890.

What was measured:
[1] = biological target: soluble recombinant form of HCV E2 glycoprotein (sE2), derived from H77-E2, harbouring a His-tag (UniProt P27958); experiment: flow cytometry on cells (sE2 binding); details: BRL3A cells expressing only the indicated SR-BI mutant; sE2-containing medium vs. sE2-free medium; mean±SD, n = 3; parent: est. 100; read off a plot
[2] = biological target: SR-BI-Short, a shorter isoform of SR-BI produced by alternative splicing that removes 100 amino acids of the ectodomain (human) (UniProt Q8WTV0)
UniProt Q8WTV0, sequence (Q8WTV0 other isoform, or with tags, fused parts or gaps): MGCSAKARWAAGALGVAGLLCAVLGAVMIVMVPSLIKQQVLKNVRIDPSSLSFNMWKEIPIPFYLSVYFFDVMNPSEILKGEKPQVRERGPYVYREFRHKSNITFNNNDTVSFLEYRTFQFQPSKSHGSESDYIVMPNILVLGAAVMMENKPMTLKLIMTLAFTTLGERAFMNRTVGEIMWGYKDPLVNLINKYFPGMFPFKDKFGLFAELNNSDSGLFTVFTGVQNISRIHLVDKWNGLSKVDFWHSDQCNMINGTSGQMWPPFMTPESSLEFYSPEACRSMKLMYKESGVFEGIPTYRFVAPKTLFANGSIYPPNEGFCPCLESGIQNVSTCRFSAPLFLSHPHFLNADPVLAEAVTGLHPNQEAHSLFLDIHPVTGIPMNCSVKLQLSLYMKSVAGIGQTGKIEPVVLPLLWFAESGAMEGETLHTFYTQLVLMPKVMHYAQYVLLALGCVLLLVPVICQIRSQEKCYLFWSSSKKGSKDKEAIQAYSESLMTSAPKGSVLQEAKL

Substance	percent of parent (% of wt SR-BI (set to 100)) [1]	entry of HCVpp (H77 E1E2) into BRL3A-CD81-CLDN1 cells expressing the SR-BI form, fold reduction against wt SR-BI [2] [fold]
human scavenger receptor class B type I (SR-BI), wild type (from UniProt Q8WTV0-2) SES	100	
soluble recombinant form of HCV E2 glycoprotein (sE2), derived from H77-E2, harbouring a His-tag (from UniProt P27958 384-661) (domain or fragment)		> 10
